The values that follow come from the Immune Epitope Database (IEDB).

For assay [1], the target named is HLA-A*01:01. As to the kind of experiment: IEDB peptide-MHC binding, purified MHC/direct/fluorescence; filed as Kd, often an IC50 or EC50 that approximates it; ≥ and ≤ were set here for values at or beyond the usual limits of such assays.
A further assay has as its target HLA-B*40:01. Description: IEDB peptide-MHC binding, purified MHC/competitive/radioactivity; filed as Kd, often an IC50 or EC50 that approximates it; ≥ and ≤ were set here for values at or beyond the usual limits of such assays.
The target in the next assay is HLA-A*32:01. The assay is described as above.
For a further assay, the target named is HLA-B*53:01. The description is as above.
A further assay concerns the target HLA-A*69:01. As to the kind of experiment: IEDB peptide-MHC binding, purified MHC/direct/fluorescence; filed as Kd, often an IC50 or EC50 that approximates it; ≥ and ≤ were set here for values at or beyond the usual limits of such assays.
The target in assay [2] is HLA-A*02:01. As to the kind of experiment: IEDB peptide-MHC binding, purified MHC/competitive/fluorescence; filed as Kd, often an IC50 or EC50 that approximates it; ≥ and ≤ were set here for values at or beyond the usual limits of such assays.
Assay [3] concerns the target HLA-A*02:01. Description: IEDB peptide-MHC binding, purified MHC/direct/fluorescence; filed as Kd, often an IC50 or EC50 that approximates it; ≥ and ≤ were set here for values at or beyond the usual limits of such assays. The following applies: source organism: Clostridium botulinum.
Another assay deals with HLA-B*44:02. As to the kind of experiment: IEDB peptide-MHC binding, purified MHC/competitive/radioactivity; filed as Kd, often an IC50 or EC50 that approximates it; ≥ and ≤ were set here for values at or beyond the usual limits of such assays.
Another assay addresses HLA-B*44:03. The assay is described as above.
The next assay addresses HLA-A*02:06. Described as above. The following applies: source organism: Dengue virus 1 Brazil/97-11/1997.
A further assay addresses HLA-B*07:02. As to the kind of experiment: IEDB peptide-MHC binding, purified MHC/direct/fluorescence; filed as Kd, often an IC50 or EC50 that approximates it; ≥ and ≤ were set here for values at or beyond the usual limits of such assays.
For a further assay, the target named is HLA-A*11:01. The description is as above.
A further assay deals with HLA-B*15:01. The assay is described as above.
The target of a further assay is HLA-B*58:01. The assay is described as above.
The target of assay [4] is HLA-A*01:01. As to the kind of experiment: IEDB peptide-MHC binding, purified MHC/competitive/radioactivity; filed as Kd, often an IC50 or EC50 that approximates it; ≥ and ≤ were set here for values at or beyond the usual limits of such assays. The following applies: source organism: SARS coronavirus Tor2.
Another assay addresses HLA-A*23:01. Described as above. The following applies: source organism: SARS coronavirus Tor2.
In the next assay the target is HLA-A*24:02. The description is as above. The following applies: source organism: SARS coronavirus Tor2.
For the next assay, the target named is HLA-A*26:01. The description is as above. The conditions noted are these: source organism: SARS coronavirus Tor2.
In the next assay the target is HLA-A*29:02. The description is as above. The conditions noted are these: source organism: SARS coronavirus Tor2.
Another assay concerns the target HLA-A*30:02. The description is as above. The following applies: source organism: SARS coronavirus Tor2.
Another assay addresses HLA-A*03:01. Description: IEDB peptide-MHC binding, purified MHC/direct/fluorescence; filed as Kd, often an IC50 or EC50 that approximates it; ≥ and ≤ were set here for values at or beyond the usual limits of such assays. The conditions noted are these: source organism: Brucella abortus.
Setting [5] is: source organism: Dengue virus 3 Martinique/1243/1999.
Where [6] appears, read: source organism: Vaccinia virus WR.
Setting [7] is: source organism: Dengue virus 4 Philippines/H241/1956.
Where [8] appears, read: source organism: Mycobacterium tuberculosis.
[9] abbreviates: source organism: Dengue virus 2 Jamaica/1409/1983.
The mark [10] stands for this setting: source organism: Dengue virus 1 Brazil/97-11/1997.
Where [11] appears, read: source organism: Brucella abortus.

In the assay with HLA-A*01:01 [1] (source organism: Vibrio cholerae), KFRDMITFR came in with a Kd of at least 20000 nM.
Turning to TEATQLATL, in the assay with HLA-B*40:01 (setting [5]), the Kd was 8.32 nM.
For MTVASRQPI, the Kd with HLA-A*32:01 (setting [6]) was 2860 nM.
Take AARISSCLK: the Kd with HLA-A*01:01 [1] (source organism: Yersinia pestis) was at least 20000 nM.
Turning to MTTEDMLKVW, the Kd with HLA-B*53:01 (setting [7]) is 1150 nM.
Sequence FLWWNAAPA yielded a Kd in the assay with HLA-A*69:01 (setting [8]) of at most 1 nM.
In the assay with HLA-A*02:01 [2] (source organism: Plasmodium falciparum), HLGNVKYLV yielded a Kd of 6.5 nM.
ISQHQHLAI: the Kd in the assay with HLA-A*32:01 (setting [6]) was 107 nM.
Regarding ILLFVIVIY, the Kd in the assay with HLA-A*32:01 (setting [6]) was 952 nM.
With MTLGMCCII, the Kd with HLA-A*32:01 (setting [9]) was 2590 nM.
As for FLWSSIIFK, the values for the Kd with HLA-A*02:01 [3] and in the assay with HLA-A*69:01 (source organism: Clostridium botulinum) were 4430 nM and 7000 nM, respectively.
Consider SLFSLLLVI, for which the Kd with HLA-A*32:01 (setting [6]) came out at 27.5 nM.
For AEPPFGDSYI, the Kd was 1990 nM with HLA-B*40:01 (setting [9]), 432 nM with HLA-B*44:02 (setting [9]) and 79.3 nM in the assay with HLA-B*44:03 (setting [9]).
In the case of VMEITAEWLW, the Kd with HLA-B*53:01 (source organism: Dengue virus 3 Singapore/8120/1995) amounted to 1030 nM.
For the sequence ALATFTVNI, the Kd in the assay with HLA-A*32:01 (setting [6]) came out at 6.07 nM.
Still for that read-out and setting: the value for MTLFKSILF was 11.3 nM.
For the sequence KQWFLDLPL, the Kd with HLA-A*02:06 amounted to 7.51 nM; in the assay with HLA-A*32:01 (setting [10]), 13.3 nM.
On to ITFLRVLSI, for which, in the assay with HLA-A*32:01 (setting [7]), the Kd is 100 nM.
With FEEYKRSGIL, in the assay with HLA-B*40:01 (setting [7]), the Kd was 18.7 nM.
Regarding EPDYEVDEDI, in the assay with HLA-B*53:01 (setting [7]), the Kd was 1170 nM.
MIRAQAGSL: the Kd in the assay with HLA-B*07:02 (setting [8]) was found to be 33.5 nM.
PTTTYTLEY yielded a Kd with HLA-A*01:01 [1] (setting [8]) of 14.2 nM.
In turn, KVHADDIPV displayed a Kd with HLA-A*02:01 [2] (source organism: Escherichia coli) of 15.3 nM.
Regarding KEENLVNSL, the Kd with HLA-B*40:01 (setting [9]) was 2.17 nM.
In the case of RETACLGKAY, the Kd in the assay with HLA-B*44:03 (setting [5]) was determined as 17.9 nM.
Turning to EVDPIGHLY, the values for the Kd with HLA-A*11:01 (source organism: Homo sapiens), with HLA-A*69:01 (source organism: Homo sapiens) and with HLA-B*15:01 (source organism: Homo sapiens) were 3360 nM, 4390 nM and 3710 nM, respectively.
As for LLWKTWYPC, the Kd with HLA-B*07:02 (source organism: Homo sapiens) was found to be 14600 nM.
As to IGFLVLWIGT, the Kd with HLA-A*32:01 (setting [7]) is at least 69900 nM.
As to LEIDFGECPG, in the assay with HLA-B*40:01 (setting [7]), the Kd stood at 10200 nM.
As for QYSDRRWCFD, the Kd with HLA-A*32:01 (setting [10]) is at least 53500 nM.
On to FPQSNAPIQ, for which the Kd in the assay with HLA-B*53:01 (setting [5]) came to 69.8 nM.
The sequence KLRGVAPL gave a Kd in the assay with HLA-A*02:01 [2] (source organism: Influenza A virus (A/Swine/Indiana/1726/1988(H1N1))) of 2250 nM.
Turning to KMFSNNVLI, the Kd with HLA-A*32:01 (setting [6]) was 1.1 nM.
As to YPKTKLTDW, the Kd with HLA-B*53:01 (setting [7]) was 1440 nM.
On to ISLICGHSY, for which the Kd was determined as 11000 nM with HLA-A*01:01 [1] (source organism: Homo sapiens); 8980 nM in the assay with HLA-A*11:01 (source organism: Homo sapiens); 5280 nM in the assay with HLA-A*69:01 (source organism: Homo sapiens); 17400 nM in the assay with HLA-B*07:02 (source organism: Homo sapiens); 108 nM with HLA-B*15:01 (source organism: Homo sapiens); 22 nM in the assay with HLA-B*58:01 (source organism: Homo sapiens).
As to IHAKHEWMTT, in the assay with HLA-A*32:01 (setting [9]), the Kd was found to be 5230 nM.
As to KTMAPVHTY, the Kd in the assay with HLA-A*32:01 (setting [6]) stood at 4.55 nM.
Turning to FEKQLGQVML, in the assay with HLA-B*40:01 (setting [9]), the dissociation constant (Kd) worked out at 130 nM.
Turning to VVAIDYRHY, the Kd in the assay with HLA-A*01:01 [4] was at least 52600 nM; with HLA-A*23:01, at least 77800 nM; with HLA-A*24:02, at least 77600 nM; with HLA-A*26:01, at least 22100 nM; with HLA-A*29:02 it was 64.7 nM; with HLA-A*30:02, 11.7 nM.
GVSGGAWVDL: in the assay with HLA-A*32:01 (setting [7]), the Kd is at least 69900 nM.
In the case of VAEGQTLDL, the Kd in the assay with HLA-B*07:02 (source organism: Homo sapiens) was at least 87200 nM.
For the sequence SVNSFTLLI, the Kd with HLA-A*32:01 (source organism: Vaccinia virus Copenhagen) stood at 2.63 nM.
With LENIMWKQI, the Kd with HLA-B*44:02 (setting [10]) is 115 nM; in the assay with HLA-B*44:03 (setting [10]), 204 nM.
As to LSDHQDLKW, the figures for the Kd in the assay with HLA-A*01:01 [1] (source organism: SARS-CoV1) and in the assay with HLA-B*58:01 (source organism: SARS-CoV1) were 818 nM and 26.6 nM, respectively.
Take MFLITENKIW: the dissociation constant (Kd) with HLA-B*53:01 (source organism: Dengue virus 1 Nauru/West Pac/1974) is 8870 nM.
Take RTYSDPLAL: the Kd with HLA-A*32:01 (setting [10]) amounted to 33.4 nM.
On to REEEEAGVLW, for which the values for the Kd with HLA-B*44:02 (setting [9]) and with HLA-B*44:03 (setting [9]) were 51.2 nM and 36.1 nM, respectively.
Take VQGPGGSTY: the dissociation constant (Kd) is 14500 nM with HLA-A*03:01, 8940 nM with HLA-A*11:01 (setting [11]) and 190 nM with HLA-B*15:01 (setting [11]).

As a reminder, the Kd is the free concentration of one partner at which half of the binding sites on the other are occupied at equilibrium, for simple one-to-one binding.
